# Data reported in patent EP3145530B1.
# What was measured:
# TRAIL-R1/DR4 (human) = TRAIL-R1/DR4 (human) (UniProt O00220); assay: cell-based or functional assay
# TRAIL-R2/DR5 (human) = TRAIL-R2/DR5 (human) (UniProt O14763); assay: cell-based or functional assay
# Chain of UniProt O14763 (O14763 56-440): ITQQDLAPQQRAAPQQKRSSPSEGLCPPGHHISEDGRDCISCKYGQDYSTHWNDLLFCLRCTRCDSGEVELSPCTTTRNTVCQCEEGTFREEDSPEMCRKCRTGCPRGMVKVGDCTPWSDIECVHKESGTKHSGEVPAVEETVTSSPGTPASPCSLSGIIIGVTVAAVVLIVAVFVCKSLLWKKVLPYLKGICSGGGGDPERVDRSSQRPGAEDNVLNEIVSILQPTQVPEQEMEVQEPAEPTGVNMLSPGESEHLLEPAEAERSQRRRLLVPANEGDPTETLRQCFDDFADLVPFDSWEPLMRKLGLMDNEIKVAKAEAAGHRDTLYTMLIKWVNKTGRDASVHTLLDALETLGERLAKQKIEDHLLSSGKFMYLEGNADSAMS
# Chain of UniProt O00220 (O00220 24-468): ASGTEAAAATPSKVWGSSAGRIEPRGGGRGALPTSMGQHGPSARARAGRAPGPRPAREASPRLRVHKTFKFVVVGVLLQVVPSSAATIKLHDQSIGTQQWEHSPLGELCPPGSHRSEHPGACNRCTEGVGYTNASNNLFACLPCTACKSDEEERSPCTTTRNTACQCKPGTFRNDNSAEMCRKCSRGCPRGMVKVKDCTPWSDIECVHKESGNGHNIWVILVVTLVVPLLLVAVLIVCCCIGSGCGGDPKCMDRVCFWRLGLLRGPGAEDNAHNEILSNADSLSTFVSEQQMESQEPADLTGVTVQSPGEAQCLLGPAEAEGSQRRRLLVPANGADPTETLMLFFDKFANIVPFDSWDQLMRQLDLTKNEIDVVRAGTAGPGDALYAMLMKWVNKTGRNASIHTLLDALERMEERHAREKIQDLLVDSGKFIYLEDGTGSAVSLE
substance,measurement,setting,value
TRAIL (TNF-related apoptosis-inducing ligand),"fold increase in induced cell death (MTT, 3 h) of human primary HSCs treated at day 7 versus day 1",TRAIL-R1/DR4 (human),4.5 fold
same,"fold increase in induced cell death (MTT, 3 h) of human primary HSCs treated at day 14 versus day 1",TRAIL-R1/DR4 (human),7.5 fold
same,"fold increase in induced cell death (MTT, 3 h) of human primary PSCs from day 1 to day 14",TRAIL-R1/DR4 (human),5.5 fold
same,"fold increase in induced cell death (MTT, 3 h) of human primary HSCs treated at day 7 versus day 1",TRAIL-R2/DR5 (human),4.5 fold
same,"fold increase in induced cell death (MTT, 3 h) of human primary HSCs treated at day 14 versus day 1",TRAIL-R2/DR5 (human),7.5 fold
same,"fold increase in induced cell death (MTT, 3 h) of human primary PSCs from day 1 to day 14",TRAIL-R2/DR5 (human),5.5 fold
